Substitutions are numbered along the chain they refer to. Each block holds one binder with its values, some of them ahead of it.
Target: TSLP, Q969D9
Experiment: Kd (SPR)

B1: unnamed (protein)
chain 1: QMQLVESGGGVVQPGRSLRLSCAASGFTFSTYAMHWVRQAPGKGLEWVAVIWYDGSNKHYADSVKGRFTITRDNSKNTLNLQMNSLRAEDTAVYYCARAPRYDYYWEAFDVWGQGTMVTVSS
chain 2: SYVLTQPPSVSVAPGQTARITCGGNNLGSKSVHWYQQKPGQAPVLVVYDDSDRPSWIPERFSGSNSGNTATLTISRGEAGDEADYYCQVWDSSSDHVVFGGGTKLTVL
Kd: 151 nM

B3: unnamed (protein)
chain 1: B1 chain 1 with Y32F, Y104D, Y105A, W106Y
chain 2: B1 chain 2
Kd: 387 nM

B4: unnamed (protein)
chain 1: B1 chain 1 with A99S, Y104W, W106Y
chain 2: B1 chain 2
Kd: 96.3 nM

B6: unnamed (protein)
chain 1: B1 chain 1 with Y32F, A99S, Y104E, W106Y
chain 2: B1 chain 2
Kd: 103 nM

B7: unnamed (protein)
chain 1: B1 chain 1 with W106Y
chain 2: B1 chain 2
Kd: 315 nM

B8: unnamed (protein)
chain 1: B1 chain 1 with Y32F, A99S, Y104E, W106L
chain 2: B1 chain 2
Kd: 117 nM

B12: unnamed (protein)
chain 1: B1 chain 1 with D103Y, Y104E, W106Y
chain 2: B1 chain 2
Kd: 105 nM

B14: unnamed (protein)
chain 1: B1 chain 1 with Y32F, Y104E, W106V
chain 2: B1 chain 2
Kd: 129 nM

B15: unnamed (protein)
chain 1: B1 chain 1 with D103Y, Y104E
chain 2: B1 chain 2
Kd: 285 nM

B16: unnamed (protein)
chain 1: B1 chain 1 with Y104D, Y105A, W106Y
chain 2: B1 chain 2
Kd: 370 nM

B17: unnamed (protein)
chain 1: B1 chain 1 with T31S, Y32F, Y104D, W106Y
chain 2: B1 chain 2
Kd: 136 nM

B18: unnamed (protein)
chain 1: B1 chain 1 with Y32F, Y104W, Y105D, W106Y
chain 2: B1 chain 2
Kd: 349 nM

B19: unnamed (protein)
chain 1: B1 chain 1 with D103Y, W106Y
chain 2: B1 chain 2
Kd: 152 nM

The remaining binders from weak to strong by Kd, led by results:

Kd: 372 nM
B2: unnamed (protein)
chain 1: B1 chain 1 with Y32F, A99S, W106Y
chain 2: B1 chain 2

Kd: 353 nM
B10: unnamed (protein)
chain 1: B1 chain 1 with Y32F, D103Y, Y104W
chain 2: B1 chain 2

Kd: 320 nM
B5: unnamed (protein)
chain 1: B1 chain 1 with Y32F, A99S, Y104D
chain 2: B1 chain 2

Kd: 190 nM
B9: unnamed (protein)
chain 1: B1 chain 1 with Y32F, D103Y, Y104E
chain 2: B1 chain 2

Kd: 126 nM
B13: unnamed (protein)
chain 1: B1 chain 1 with Y32F, A99S, Y104W, W106Y
chain 2: B1 chain 2

Kd: 31.6 nM
B11: unnamed (protein)
chain 1: B1 chain 1 with Y32F, A99S, Y104E
chain 2: B1 chain 2

Source: the FLAb antibody collection (doi:10.1101/2023.12.08.570889)
